*1 amine or outer side, *2 acyl side, *3 side chain or, on linkers, in order; H or OH if unused. Side-chain parts run from the residue outwards. [ ]: non-standard residue; d: D form. The star is where a group is joined. C20 diacid = O=C(O)CCCCCCCCCCCCCCCCCCC(=O)*; γGlu = O=C(O)[C@H](CCC(=O)[*:2])N[*:1]; Myristoyl = CCCCCCCCCCCCCC(=O)*; Lauroyl = CCCCCCCCCCCC(=O)*; Decanoyl = CCCCCCCCCC(=O)*; Pentanoyl = CCCCC(=O)*; Aib = CC(C)(N)C(=O)O
T1: CRF1R receptor (UniProt P34998 24-415, limits assumed)
T1 sequence (looked up): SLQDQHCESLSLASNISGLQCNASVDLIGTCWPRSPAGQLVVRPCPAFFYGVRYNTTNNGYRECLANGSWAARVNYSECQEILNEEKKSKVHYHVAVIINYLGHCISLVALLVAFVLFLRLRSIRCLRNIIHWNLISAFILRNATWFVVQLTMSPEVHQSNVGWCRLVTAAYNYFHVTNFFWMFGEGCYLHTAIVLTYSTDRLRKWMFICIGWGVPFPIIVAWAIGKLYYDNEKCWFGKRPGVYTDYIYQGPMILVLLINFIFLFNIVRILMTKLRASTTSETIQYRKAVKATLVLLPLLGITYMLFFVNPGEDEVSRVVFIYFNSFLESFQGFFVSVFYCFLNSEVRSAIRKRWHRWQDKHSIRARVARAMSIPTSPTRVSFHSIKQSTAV

B1: SEQ ID NO 221 (peptide)
peptide: Pentanoyl-VLSLD[dV]PIKLK([γGlu-C20 diacid])KILLEQEAQKKQREQAETN[Aib]QILAQV-NH2
SMILES: CCCCC(=O)N[C@H](C(=O)N[C@@H](CC(C)C)C(=O)N[C@@H](CO)C(=O)N[C@@H](CC(C)C)C(=O)N[C@@H](CC(=O)O)C(=O)N[C@@H](C(=O)N1CCC[C@H]1C(=O)N[C@H](C(=O)N[C@@H](CCCCN)C(=O)N[C@@H](CC(C)C)C(=O)N[C@@H](CCCCNC(=O)CC[C@H](NC(=O)CCCCCCCCCCCCCCCCCCC(=O)O)C(=O)O)C(=O)N[C@@H](CCCCN)C(=O)N[C@H](C(=O)N[C@@H](CC(C)C)C(=O)N[C@@H](CC(C)C)C(=O)N[C@@H](CCC(=O)O)C(=O)N[C@@H](CCC(N)=O)C(=O)N[C@@H](CCC(=O)O)C(=O)N[C@@H](C)C(=O)N[C@@H](CCC(N)=O)C(=O)N[C@@H](CCCCN)C(=O)N[C@@H](CCCCN)C(=O)N[C@@H](CCC(N)=O)C(=O)N[C@@H](CCCNC(=N)N)C(=O)N[C@@H](CCC(=O)O)C(=O)N[C@@H](CCC(N)=O)C(=O)N[C@@H](C)C(=O)N[C@@H](CCC(=O)O)C(=O)N[C@H](C(=O)N[C@@H](CC(N)=O)C(=O)NC(C)(C)C(=O)N[C@@H](CCC(N)=O)C(=O)N[C@H](C(=O)N[C@@H](CC(C)C)C(=O)N[C@@H](C)C(=O)N[C@@H](CCC(N)=O)C(=O)N[C@H](C(N)=O)C(C)C)[C@@H](C)CC)[C@@H](C)O)[C@@H](C)CC)[C@@H](C)CC)C(C)C)C(C)C
B2: SEQ ID NO 224 (peptide)
peptide: Lauroyl-VLSLD[dV]PIKLK([γGlu-C20 diacid])KILLEQEKQKKQREQAETN[Aib]QILAQV-NH2
SMILES: CCCCCCCCCCCC(=O)N[C@H](C(=O)N[C@@H](CC(C)C)C(=O)N[C@@H](CO)C(=O)N[C@@H](CC(C)C)C(=O)N[C@@H](CC(=O)O)C(=O)N[C@@H](C(=O)N1CCC[C@H]1C(=O)N[C@H](C(=O)N[C@@H](CCCCN)C(=O)N[C@@H](CC(C)C)C(=O)N[C@@H](CCCCNC(=O)CC[C@H](NC(=O)CCCCCCCCCCCCCCCCCCC(=O)O)C(=O)O)C(=O)N[C@@H](CCCCN)C(=O)N[C@H](C(=O)N[C@@H](CC(C)C)C(=O)N[C@@H](CC(C)C)C(=O)N[C@@H](CCC(=O)O)C(=O)N[C@@H](CCC(N)=O)C(=O)N[C@@H](CCC(=O)O)C(=O)N[C@@H](CCCCN)C(=O)N[C@@H](CCC(N)=O)C(=O)N[C@@H](CCCCN)C(=O)N[C@@H](CCCCN)C(=O)N[C@@H](CCC(N)=O)C(=O)N[C@@H](CCCNC(=N)N)C(=O)N[C@@H](CCC(=O)O)C(=O)N[C@@H](CCC(N)=O)C(=O)N[C@@H](C)C(=O)N[C@@H](CCC(=O)O)C(=O)N[C@H](C(=O)N[C@@H](CC(N)=O)C(=O)NC(C)(C)C(=O)N[C@@H](CCC(N)=O)C(=O)N[C@H](C(=O)N[C@@H](CC(C)C)C(=O)N[C@@H](C)C(=O)N[C@@H](CCC(N)=O)C(=O)N[C@H](C(N)=O)C(C)C)[C@@H](C)CC)[C@@H](C)O)[C@@H](C)CC)[C@@H](C)CC)C(C)C)C(C)C
B3: SEQ ID NO 220 (peptide)
peptide: Pentanoyl-VLSLD[dV]PIKLK([γGlu-C20 diacid])KILLEQEKQK[Aib]QREQAETN[Aib]QILAQV-NH2
SMILES: CCCCC(=O)N[C@H](C(=O)N[C@@H](CC(C)C)C(=O)N[C@@H](CO)C(=O)N[C@@H](CC(C)C)C(=O)N[C@@H](CC(=O)O)C(=O)N[C@@H](C(=O)N1CCC[C@H]1C(=O)N[C@H](C(=O)N[C@@H](CCCCN)C(=O)N[C@@H](CC(C)C)C(=O)N[C@@H](CCCCNC(=O)CC[C@H](NC(=O)CCCCCCCCCCCCCCCCCCC(=O)O)C(=O)O)C(=O)N[C@@H](CCCCN)C(=O)N[C@H](C(=O)N[C@@H](CC(C)C)C(=O)N[C@@H](CC(C)C)C(=O)N[C@@H](CCC(=O)O)C(=O)N[C@@H](CCC(N)=O)C(=O)N[C@@H](CCC(=O)O)C(=O)N[C@@H](CCCCN)C(=O)N[C@@H](CCC(N)=O)C(=O)N[C@@H](CCCCN)C(=O)NC(C)(C)C(=O)N[C@@H](CCC(N)=O)C(=O)N[C@@H](CCCNC(=N)N)C(=O)N[C@@H](CCC(=O)O)C(=O)N[C@@H](CCC(N)=O)C(=O)N[C@@H](C)C(=O)N[C@@H](CCC(=O)O)C(=O)N[C@H](C(=O)N[C@@H](CC(N)=O)C(=O)NC(C)(C)C(=O)N[C@@H](CCC(N)=O)C(=O)N[C@H](C(=O)N[C@@H](CC(C)C)C(=O)N[C@@H](C)C(=O)N[C@@H](CCC(N)=O)C(=O)N[C@H](C(N)=O)C(C)C)[C@@H](C)CC)[C@@H](C)O)[C@@H](C)CC)[C@@H](C)CC)C(C)C)C(C)C
B4: SEQ ID NO 222 (peptide)
peptide: Pentanoyl-VLSLD[dV]PIKLK([γGlu-C20 diacid])KILLEQEKQKAQREQAETN[Aib]QILAQV-NH2
SMILES: CCCCC(=O)N[C@H](C(=O)N[C@@H](CC(C)C)C(=O)N[C@@H](CO)C(=O)N[C@@H](CC(C)C)C(=O)N[C@@H](CC(=O)O)C(=O)N[C@@H](C(=O)N1CCC[C@H]1C(=O)N[C@H](C(=O)N[C@@H](CCCCN)C(=O)N[C@@H](CC(C)C)C(=O)N[C@@H](CCCCNC(=O)CC[C@H](NC(=O)CCCCCCCCCCCCCCCCCCC(=O)O)C(=O)O)C(=O)N[C@@H](CCCCN)C(=O)N[C@H](C(=O)N[C@@H](CC(C)C)C(=O)N[C@@H](CC(C)C)C(=O)N[C@@H](CCC(=O)O)C(=O)N[C@@H](CCC(N)=O)C(=O)N[C@@H](CCC(=O)O)C(=O)N[C@@H](CCCCN)C(=O)N[C@@H](CCC(N)=O)C(=O)N[C@@H](CCCCN)C(=O)N[C@@H](C)C(=O)N[C@@H](CCC(N)=O)C(=O)N[C@@H](CCCNC(=N)N)C(=O)N[C@@H](CCC(=O)O)C(=O)N[C@@H](CCC(N)=O)C(=O)N[C@@H](C)C(=O)N[C@@H](CCC(=O)O)C(=O)N[C@H](C(=O)N[C@@H](CC(N)=O)C(=O)NC(C)(C)C(=O)N[C@@H](CCC(N)=O)C(=O)N[C@H](C(=O)N[C@@H](CC(C)C)C(=O)N[C@@H](C)C(=O)N[C@@H](CCC(N)=O)C(=O)N[C@H](C(N)=O)C(C)C)[C@@H](C)CC)[C@@H](C)O)[C@@H](C)CC)[C@@H](C)CC)C(C)C)C(C)C
B5: SEQ ID NO 223 (peptide)
peptide: Decanoyl-VLSLD[dV]PIKLK([γGlu-C20 diacid])KILLEQEKQKKQREQAETN[Aib]QILAQV-NH2
SMILES: CCCCCCCCCC(=O)N[C@H](C(=O)N[C@@H](CC(C)C)C(=O)N[C@@H](CO)C(=O)N[C@@H](CC(C)C)C(=O)N[C@@H](CC(=O)O)C(=O)N[C@@H](C(=O)N1CCC[C@H]1C(=O)N[C@H](C(=O)N[C@@H](CCCCN)C(=O)N[C@@H](CC(C)C)C(=O)N[C@@H](CCCCNC(=O)CC[C@H](NC(=O)CCCCCCCCCCCCCCCCCCC(=O)O)C(=O)O)C(=O)N[C@@H](CCCCN)C(=O)N[C@H](C(=O)N[C@@H](CC(C)C)C(=O)N[C@@H](CC(C)C)C(=O)N[C@@H](CCC(=O)O)C(=O)N[C@@H](CCC(N)=O)C(=O)N[C@@H](CCC(=O)O)C(=O)N[C@@H](CCCCN)C(=O)N[C@@H](CCC(N)=O)C(=O)N[C@@H](CCCCN)C(=O)N[C@@H](CCCCN)C(=O)N[C@@H](CCC(N)=O)C(=O)N[C@@H](CCCNC(=N)N)C(=O)N[C@@H](CCC(=O)O)C(=O)N[C@@H](CCC(N)=O)C(=O)N[C@@H](C)C(=O)N[C@@H](CCC(=O)O)C(=O)N[C@H](C(=O)N[C@@H](CC(N)=O)C(=O)NC(C)(C)C(=O)N[C@@H](CCC(N)=O)C(=O)N[C@H](C(=O)N[C@@H](CC(C)C)C(=O)N[C@@H](C)C(=O)N[C@@H](CCC(N)=O)C(=O)N[C@H](C(N)=O)C(C)C)[C@@H](C)CC)[C@@H](C)O)[C@@H](C)CC)[C@@H](C)CC)C(C)C)C(C)C
B6: SEQ ID NO 225 (peptide)
peptide: Myristoyl-VLSLD[dV]PIKLK([γGlu-C20 diacid])KILLEQEKQKKQREQAETN[Aib]QILAQV-NH2
SMILES: CCCCCCCCCCCCCC(=O)N[C@H](C(=O)N[C@@H](CC(C)C)C(=O)N[C@@H](CO)C(=O)N[C@@H](CC(C)C)C(=O)N[C@@H](CC(=O)O)C(=O)N[C@@H](C(=O)N1CCC[C@H]1C(=O)N[C@H](C(=O)N[C@@H](CCCCN)C(=O)N[C@@H](CC(C)C)C(=O)N[C@@H](CCCCNC(=O)CC[C@H](NC(=O)CCCCCCCCCCCCCCCCCCC(=O)O)C(=O)O)C(=O)N[C@@H](CCCCN)C(=O)N[C@H](C(=O)N[C@@H](CC(C)C)C(=O)N[C@@H](CC(C)C)C(=O)N[C@@H](CCC(=O)O)C(=O)N[C@@H](CCC(N)=O)C(=O)N[C@@H](CCC(=O)O)C(=O)N[C@@H](CCCCN)C(=O)N[C@@H](CCC(N)=O)C(=O)N[C@@H](CCCCN)C(=O)N[C@@H](CCCCN)C(=O)N[C@@H](CCC(N)=O)C(=O)N[C@@H](CCCNC(=N)N)C(=O)N[C@@H](CCC(=O)O)C(=O)N[C@@H](CCC(N)=O)C(=O)N[C@@H](C)C(=O)N[C@@H](CCC(=O)O)C(=O)N[C@H](C(=O)N[C@@H](CC(N)=O)C(=O)NC(C)(C)C(=O)N[C@@H](CCC(N)=O)C(=O)N[C@H](C(=O)N[C@@H](CC(C)C)C(=O)N[C@@H](C)C(=O)N[C@@H](CCC(N)=O)C(=O)N[C@H](C(N)=O)C(C)C)[C@@H](C)CC)[C@@H](C)O)[C@@H](C)CC)[C@@H](C)CC)C(C)C)C(C)C

Target: T1, CRF1R receptor
Test: cell-based or functional assay

Row | EC50 [nM] | Emax (% I) [%] | Binder
1 | 22.5 | 79 | B1
2 | 39.5 | 66 | B2
3 | – | 32 | B3
4 | 196 | 50 | B4
5 | 152 | 58 | B5
6 | 73.4 | 70 | B6

Target: human corticotropin-releasing factor 2a (CRF2a receptor) (human), Q13324
Test: cell-based or functional assay

Sequence of human corticotropin-releasing factor 2a (CRF2a receptor) (human), Q13324 (Q13324 20-411): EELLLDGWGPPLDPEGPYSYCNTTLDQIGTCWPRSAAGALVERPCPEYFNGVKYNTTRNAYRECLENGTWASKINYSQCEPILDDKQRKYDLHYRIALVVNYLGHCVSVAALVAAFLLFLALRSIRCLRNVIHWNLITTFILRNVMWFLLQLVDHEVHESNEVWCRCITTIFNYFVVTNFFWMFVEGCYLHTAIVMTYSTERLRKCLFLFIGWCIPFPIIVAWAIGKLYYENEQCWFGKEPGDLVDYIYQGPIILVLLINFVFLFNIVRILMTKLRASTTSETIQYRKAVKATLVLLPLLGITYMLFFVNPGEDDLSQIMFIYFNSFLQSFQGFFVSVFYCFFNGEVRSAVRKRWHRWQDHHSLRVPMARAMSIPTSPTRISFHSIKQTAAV

Row | EC50 [nM] (cAMP) | Binder
7 | 0.18 | B1
8 | 0.07 | B2
9 | 0.27 | B3
10 | 0.14 | B4
11 | 0.08 | B5
12 | 0.09 | B6

Source: patent US20260001928A1 (CORTERIA PHARMACEUTICALS, priority 2022, published 2026)
